From PMC8446579

Target: Candida parapsilosis ATCC 7330 imine reductase CpIM1 (Candida parapsilosis ATCC 7330)
Assay: SEC

Work on “Candida parapsilosis ATCC 7330 imine reductase CpIM1 (enzyme)” yielded a stoichiometry N of 2.
